# In US6028055A, “Receptor selective BNP” (Genetech, Inc., priority 1997, dated 2000):
# T1: NPR-A (Homo sapiens, UniProt P16066)
# T1 construct: expressed in transfected cells
# T1 sequence (P16066 33-1061): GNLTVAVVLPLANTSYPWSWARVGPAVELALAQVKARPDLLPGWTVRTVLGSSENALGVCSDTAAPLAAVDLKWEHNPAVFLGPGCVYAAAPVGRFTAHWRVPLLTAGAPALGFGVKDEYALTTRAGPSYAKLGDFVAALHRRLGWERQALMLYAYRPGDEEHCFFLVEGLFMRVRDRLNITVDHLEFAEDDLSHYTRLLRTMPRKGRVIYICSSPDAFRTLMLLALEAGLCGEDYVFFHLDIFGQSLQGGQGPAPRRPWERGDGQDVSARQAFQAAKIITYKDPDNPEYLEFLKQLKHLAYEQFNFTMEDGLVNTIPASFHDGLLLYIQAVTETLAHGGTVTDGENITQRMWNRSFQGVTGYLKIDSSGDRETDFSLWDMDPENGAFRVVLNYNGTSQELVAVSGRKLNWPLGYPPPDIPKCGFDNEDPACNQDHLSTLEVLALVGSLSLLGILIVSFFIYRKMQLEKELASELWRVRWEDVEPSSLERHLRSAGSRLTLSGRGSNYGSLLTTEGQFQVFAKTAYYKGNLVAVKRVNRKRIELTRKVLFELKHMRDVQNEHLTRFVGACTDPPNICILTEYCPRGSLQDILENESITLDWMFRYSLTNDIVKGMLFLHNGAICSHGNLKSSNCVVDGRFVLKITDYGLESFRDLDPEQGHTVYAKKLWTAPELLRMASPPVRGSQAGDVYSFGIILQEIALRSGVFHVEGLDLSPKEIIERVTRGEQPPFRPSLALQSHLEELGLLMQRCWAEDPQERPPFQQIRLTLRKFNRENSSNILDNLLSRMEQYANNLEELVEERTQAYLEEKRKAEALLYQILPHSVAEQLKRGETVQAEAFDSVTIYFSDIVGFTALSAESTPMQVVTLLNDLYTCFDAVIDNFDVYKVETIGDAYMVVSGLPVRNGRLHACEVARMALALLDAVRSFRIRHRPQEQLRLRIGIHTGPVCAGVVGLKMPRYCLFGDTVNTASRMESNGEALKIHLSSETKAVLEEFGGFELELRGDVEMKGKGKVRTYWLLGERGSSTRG
# T2: NPR-C (Homo sapiens, UniProt P17342)
# T2 construct: expressed in transfected cells
# T2 sequence (P17342 27-541): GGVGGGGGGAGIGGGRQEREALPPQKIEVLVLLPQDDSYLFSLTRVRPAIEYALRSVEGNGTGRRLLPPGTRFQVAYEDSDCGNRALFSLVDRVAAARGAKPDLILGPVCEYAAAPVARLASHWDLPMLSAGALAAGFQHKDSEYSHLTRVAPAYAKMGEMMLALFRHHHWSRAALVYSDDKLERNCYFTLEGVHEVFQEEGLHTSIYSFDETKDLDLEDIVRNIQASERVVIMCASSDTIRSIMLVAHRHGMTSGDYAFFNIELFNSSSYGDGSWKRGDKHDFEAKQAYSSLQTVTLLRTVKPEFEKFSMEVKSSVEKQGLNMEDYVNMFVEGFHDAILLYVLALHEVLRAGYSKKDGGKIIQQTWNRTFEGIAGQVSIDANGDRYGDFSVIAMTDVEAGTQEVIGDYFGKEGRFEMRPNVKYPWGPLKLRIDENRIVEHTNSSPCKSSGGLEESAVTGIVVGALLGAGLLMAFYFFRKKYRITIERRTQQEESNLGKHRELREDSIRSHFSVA
# T3: NPR-C expressed in stable 293 cell lines (membranes) (human) (UniProt P17342)
# T3 sequence: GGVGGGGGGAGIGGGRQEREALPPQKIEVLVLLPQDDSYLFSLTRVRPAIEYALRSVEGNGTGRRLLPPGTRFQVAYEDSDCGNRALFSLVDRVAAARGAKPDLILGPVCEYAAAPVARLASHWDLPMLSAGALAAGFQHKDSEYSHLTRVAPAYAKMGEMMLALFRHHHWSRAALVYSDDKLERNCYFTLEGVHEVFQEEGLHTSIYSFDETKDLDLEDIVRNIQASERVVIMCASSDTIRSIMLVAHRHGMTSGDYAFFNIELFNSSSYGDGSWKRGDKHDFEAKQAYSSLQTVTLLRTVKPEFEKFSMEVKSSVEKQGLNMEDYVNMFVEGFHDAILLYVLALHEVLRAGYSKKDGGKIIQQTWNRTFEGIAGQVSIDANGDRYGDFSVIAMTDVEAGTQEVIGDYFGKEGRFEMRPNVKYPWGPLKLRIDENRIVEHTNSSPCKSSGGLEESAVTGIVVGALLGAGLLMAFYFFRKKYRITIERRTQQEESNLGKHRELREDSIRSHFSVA
# T4: NPR-C expressed in stable 293 cell lines (membranes) (human, UniProt P17342)
# T4 sequence: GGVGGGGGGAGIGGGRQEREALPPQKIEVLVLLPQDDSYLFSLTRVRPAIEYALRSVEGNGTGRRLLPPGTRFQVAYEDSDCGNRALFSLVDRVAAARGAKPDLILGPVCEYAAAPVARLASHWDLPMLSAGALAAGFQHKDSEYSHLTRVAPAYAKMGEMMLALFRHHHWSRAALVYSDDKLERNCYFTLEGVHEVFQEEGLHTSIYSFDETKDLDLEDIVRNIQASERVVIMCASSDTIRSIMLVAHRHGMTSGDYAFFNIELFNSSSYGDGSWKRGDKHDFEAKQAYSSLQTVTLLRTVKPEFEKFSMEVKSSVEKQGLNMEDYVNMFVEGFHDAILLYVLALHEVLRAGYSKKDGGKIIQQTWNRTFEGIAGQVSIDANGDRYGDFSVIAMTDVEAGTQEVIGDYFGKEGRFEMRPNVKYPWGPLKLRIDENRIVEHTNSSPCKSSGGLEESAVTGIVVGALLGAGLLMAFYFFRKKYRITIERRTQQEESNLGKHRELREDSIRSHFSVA
# Columns and labels:
# NPR-A = target: T1, NPR-A; assay: Measurement of binding affinities for NPR-A, membranes from stable 293 cell lines, 125I rat ANP displacement; conditions: pure synthetic peptide vs 30 pM 125I rat ANP, 2 hours room temperature; duplicate points, three separate assays
# Protocol: (§1) Membrane Preparation Membranes from stable 293 cell lines expressing NPR-A (Lowe and Fendly (1992) J. Biol. Chem.) or NPR-C (Cunningham et al. (1994) supra) were prepared by removing the cells from tissue culture plates with 0.5MM EDTA in PBS, centrifuging at 225×g, 4° C., and resuspending in 50 mM Hepes Ph7.4, 1 mM EDTA, 1 mM DTT, 250 mM Sucrose, 0.7 μg/ml Pepstatin A, 0.5 μg/ml Leupeptin, 1 mM PMSF, 1 μM Phosphoramidon. The resuspended cells were homogenized for 30 seconds with a Brinkman polytron on setting 5. The homogenate was centrifuged in 30 ml corex tubes in Sorval HB-4 rotor at 400×(1500 rpm) for 10 minutes at 4° C. The supernatant was centrifuged again in screw cap polycarbonate tubes (Beckman 355618) at 100,000×g (31,500 rpm) for 30 minutes, 4° C. in a Beckman TI60 rotor. The pellet was resuspended in 50 mM Hepes, 0.1 mM EDTA, 5.0 mM MgCl2, 100 mM NaCl, 0.7μg/ml Pepstatin A, 0.5 μg/ml Leupeptin, 1 mM PMSF, 1 μM Phosphoramidon and homogenized again with 15 strokes in a Dounce homogenizer (Wheaton 7 ml, #357542). The membranes were passed through a 22 gauge needle several times before aliquoting into eppendorf tubes for storage at -80° C.
# (§2) The binding was allowed to go for 2 hours at room temperature in 96 well U-bottomed microtiter polypropylene plates (Sigma M-4029) with gentle agitation. The bound hormone was separated from the free using a Packard Filtermate 196 cell harvester and 1% polyethyleneimine-saturated Packard unifilter-96 GF/B plates by vacuum filtration. The plates were dried under vacuum chamber for 10 minutes prior to adding 40 μl Microscint-20 scintillant and counting in a Packard Topcount scintillation counter. Each affinity represents points measured in duplicate within three separate assays.
# NPR-C = target: T2, NPR-C; assay: Measurement of binding affinities for NPR-C, membranes from stable 293 cell lines, 125I rat ANP displacement; design: unit not given here; conditions: pure synthetic peptide vs 30 pM 125I rat ANP, 2 hours room temperature; duplicate points, three separate assays
# Protocol: as §1, §2
# [1] = target: human natriuretic peptide receptor-A expressed in 293 cells (human) (UniProt P16066); assay: competition with 30 pM 125I-rat ANP on membranes of 293 cells expressing NPR-A; unit not given
# [2] = target: T3, NPR-C expressed in stable 293 cell lines (membranes) (human); assay: competition with 30 pM 125I-rat ANP on membranes of 293 cells expressing NPR-C; unit not given
# [3] = target: human natriuretic peptide receptor-A expressed in 293 cells (human, UniProt P16066); assay: competition with 30 pM 125I-rat ANP on membranes of 293 cells expressing NPR-A; unit not given
# Protocol: as §1, with “µg/ml” for “μg/ml”, “µM” for “μM”, “MgCl_2,” for “MgCl2,”, “0.7µg/ml” for “0.7μg/ml”, “−80°” for “-80°”
# (§3) The binding was allowed to go for 2 hours at room temperature in 96 well U-bottomed microtiter polypropylene plates (Sigma M-4029) with gentle agitation. The bound hormone was separated from the free using a Packard Filtermate 196 cell harvester and 1% polyethyleneimine-saturated Packard unifilter-96 GF/B plates by vacuum filtration. The plates were dried under vacuum chamber for 10 minutes prior to adding 40 µl Microscint-20 scintillant and counting in a Packard Topcount scintillation counter. Each affinity represents points measured in duplicate within three separate assays.
# [4] = target: T4, NPR-C expressed in stable 293 cell …; assay: competition with 30 pM 125I-rat ANP on membranes of 293 cells expressing NPR-C; unit not given
# Protocol: as §1, with “µg/ml” for “μg/ml”, “µM” for “μM”, “MgCl_2,” for “MgCl2,”, “0.7µg/ml” for “0.7μg/ml”, “−80°” for “-80°”
# as §3
# hBNP Ser19Arg (SEQ ID NO: 4) (peptide), sequence (peptide): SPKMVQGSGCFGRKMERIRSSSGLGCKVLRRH
Molecule,affinity (NPR-A) [1],affinity (NPR-C) [2],affinity (NPR-A) [3],affinity (NPR-C) [4],further results
hBNP Ser19Arg,,,,,"NPR-A binding affinity (Assay #1) (NPR-A): 155 ± 55.3; NPR-C binding affinity (Assay #1) (NPR-C): 95,498 ± 14,603"
hBNP (SEQ ID NO: 1) (peptide),645,1790,,,
"hBNP Gly23Phe, Leu24Trp, Gly25Arg (SEQ ID NO: 2) (peptide)",378,9360,,,
"hBNP Gly23Phe, Leu24Trp, Gly25Arg (SPKMVQGSGCFGRKMERISSSSFWRCKVLRRH)",,,,,NPR-A binding affinity (Assay #1) (NPR-A): 378 ± 136; NPR-C binding affinity (Assay #1) (NPR-C): 9363 ± 2067
"hBNP Ser19Arg Gly23Phe, Leu24Trp, Gly25Arg (SPKMVQGSGCFGRKMERIRSSSFWRCKVLRRH)",,,,,"NPR-A binding affinity (Assay #1) (NPR-A): 287 ± 27; NPR-C binding affinity (Assay #1) (NPR-C): 172,400 ± 120,096"
hBNP Ser19Arg (SEQ ID NO: 4) (peptide),155,95500,,,
"SPKMVQGSGCFGRKMERIRSSSFWRCKVLRRH [hBNP Ser19Arg, Gly23Phe, Leu24Trp, Gly25Arg (SEQ ID NO: 7)]",287,172000,,,
"SLRRSSCFGGRIDRIGAQSFWRCNSFRY [hANP Net12Ile, Gly20Phe, Leu21Trp, Gly22Arg (SEQ ID NO:50)]",,,507,295,
SLRRSSCFGGRIDRIGAQSGLGCNSFRY [hANP (SEQ ID NO: 51)],,,43.5,198,
"SPKMVQGSGCFGGRMDRIRSSSGLGCKVLRRH [hBNP Arg13Gly, Lys14Arg, Ser19Arg (SEQ ID NO:49)]",,,518,28400,
SLRRSSCFGGRIDRIRAQSGLGCNSFRY [hANP Gly16Arg (SEQ ID NO: 52)],,,17.2,10600,
